Test results published in the nanobody polyreactivity screen of Harvey et al. (2022).

Test: yeast display, Sf9 membrane polyspecificity reagent, FACS + sequencing; frameworks hold sequencing errors
Outline: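 Polyreactivity labels are assigned by the sorting gate from which each nanobody was recovered. The gates were low and high (top ~1%), set on anti-HA fluorescence for expression and streptavidin fluorescence for reagent binding. Before sorting, galactose-induced (36–48 hours) yeast display cells were stained for 1 hour at 4 °C with 10% biotinylated, detergent-solubilized Sf9 membrane reagent.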
With “QVQLVESGGALVQAGASLRLSCAASGFTFWDYAMGWYRQAPGKERELVAAISDNDGSTDYADSVKGRFTISRDIAKNSVYLQMNSLKPEDTAVYSCNAEIELPSKVGDYWGQGTLVTVSS” the “polyreactivity (PSR sort gate)” value was “low polyreactivity”. For “QVQLVESGGALVQAGATLRISSAASGSIFYRNSMRWYRQAPGKEREKVAANSSDGSRNYADSVKGRFSISRDNAKNTVYLQMNSLKPEDNAVYYCAVDYGTQYGEYTYYDYDYWGQCTQVTVSS”, the “polyreactivity (PSR sort gate)” value was “low polyreactivity”. For “QVQLVESGGALVQAGCSLSLSCAASGRIFSHNAMGWYRQAPGKERELVAGISSGGGTTYADSVKGRFTISRDNAKNNVYLQMNSLKPEDTAVYYCNKQDQPVGRSGYPYGYDYWGQGTQVTVSS”, the “polyreactivity (PSR sort gate)” value was “low polyreactivity”. In the case of “QVQLVESGGALVQAGGSLRLICAASGRIFPRNVMGWYRQAPGKERELVAAISSRGTRTYYADSVKGRFTISRDNAKNTVYLQMYSLKPEDTAVYYCAADGPYEGYDYWGQGTQVTVSS”, the “polyreactivity (PSR sort gate)” value is reported as “high polyreactivity”. For “QVQLVESGGALVQAGGSLRLICAASGRTFQKYTMGWYRQAPGKERELVAAISKRGGSTYYADSVKGRFTISRDNAKNTVYLQMNSLKPEDTAVYYCATRVYRSAVSYDYWGQGTQVTVSS”, the “polyreactivity (PSR sort gate)” value was “high polyreactivity”. With “QVQLVESGGALVQAGGSLRLSCAASAFIFKANAMGRYRQAPGKERELVASITFGGDSTYYADSVKGRFTISRDNAKNTVYLQMNSLKAEDNAVYFCNTRRRSYPTYYYWGQGTQVTVLS” the “polyreactivity (PSR sort gate)” value was “low polyreactivity”. In the case of “QVQLVESGGALVQAGGSLRLSCAASGFIFGSYVMGWYRQAPGKERELVAAISQIGGRTYYADSVKGRFTISRDNAKKTVYLQMNSLKPEDTAVYYCAARWAGYRYVGGYWRDDMDYWGQGTQVTVSS”, the “polyreactivity (PSR sort gate)” value is reported as “high polyreactivity”. For “QVQLVESGGALVQAGGSLRLSCAASGFIFPYYAMGWYRQAPGKERELVAAITFSATRTYYADSVKGRFTISRDNAKNTVYLQMNSLKPEDTAVYYCAVGSASSGYEYDYWGQGTQVTVSS”, the “polyreactivity (PSR sort gate)” value was “low polyreactivity”. In the case of “QVQLVESGGALVQAGGSLRLSCAASGFTFRRYAMGWYRQAPGKERELVAAINKSGGSTYYADSVKGRFTISRDKSKNTVYFQMNSLKPEDTAVYYCAARFSYWKTKRAYDWGQGTQVNVSS”, the “polyreactivity (PSR sort gate)” value is reported as “high polyreactivity”. In the case of “QVQLVESGGALVQAGGSLRLSCAASGRIFGVNTMGWYRQAPGKERELVDAISAGGGSTYYADSVKGRFTISRDLAKNTVYLQMNSLKPEDTAVYYCNVLTLNYRSTSRRKEYDYWGQGTQVTVSS”, the “polyreactivity (PSR sort gate)” value is reported as “high polyreactivity”. With “QVQLVESGGALVQAGGSLRLSCAASGRIFLKYTMGWYRQAPGKERELVAAISRGGSTYYADSVKGRFTISRDNAKNTVYLQMNSLKPEDTAVYYCAATSYRRTGYNYWGQGTQVTVSS” the “polyreactivity (PSR sort gate)” value was “high polyreactivity”. With “QVQLVESGGALVQAGGSLRLSCAASGRTFAVNAMGWYRQAPGKEREFVAAISKRGGSTYYADSVKGRFTISRDNAKNTVYLQMNSLTPEDTAVYYCAADYTKHYWGQGTQVTVSS” the “polyreactivity (PSR sort gate)” value was “high polyreactivity”. In the case of “QVQLVESGGALVQAGGSLRLSCAASGRTFGINAMGWYRQAPGKERELVAAIRTGGSTYYADSVKGRFTISRDNAKNTVYLQMNSLKPADTAVYYCAAKAYRRYTIPPYGYWGQGTQVTVSS”, the “polyreactivity (PSR sort gate)” value is reported as “high polyreactivity”. In the case of “QVQLVESGGALVQAGGSLRLSCAASGRTFGSYAMGWDRQAPGKESELVAAISRRGGSTYYADSVKGRFTISRDNAKNTVYLQLNSLKPEDSAVYYCAVRKASDYYYWGQGTQVTVSS”, the “polyreactivity (PSR sort gate)” value is reported as “high polyreactivity”. For “QVQLVESGGALVQAGGSLRLSCAASGRTFYNYAMGWYRQAPGKEREFVASITTSGGSTYYADSVKGRFTISRDNAKNTVYLQMNSLIPEDTAVYYCARRAYRSWTRNSYEYYYWGQGTQVTVSS”, the “polyreactivity (PSR sort gate)” value was “high polyreactivity”. With “QVQLVESGGALVQAGGSLRLSCAASGSIFFENAMGWYRPAPGKERELVAAIRSGVDTYYADSVKGRFTLSRDNAKNTVYLQMNSLKPQDTAVYNCNADAYYYYAIWWSEVDYWGQGTQVTVSS” the “polyreactivity (PSR sort gate)” value was “low polyreactivity”. For “QVQLVESGGALVQAGGSLRLSCAASGSIFYWYAMGWYRQAPGKEREFVAGITGRGGSTYYADSVKGRFTISRDNAKNTVYLQMNSLKPEDTAVYYADFVKYGKYYQRYDYWGQGTQVTVSS”, the “polyreactivity (PSR sort gate)” value was “high polyreactivity”. For “QVQLVESGGALVQAGGSLRLSCAASGSTFYSYAMGWYRQAPGKERELVAVISTGDTTDYADSVKGRFTISRDNAKNTVNLQMNSLKPEDTAVYYCNAPSYWYYPVLGSFLTFDYWGQGTQVTVSS”, the “polyreactivity (PSR sort gate)” value was “low polyreactivity”. In the case of “QVQLVESGGALVQAGGSLRLSCAASGYTFFYYAMGWYRQARGKERVLVAIDLNGGSTYYADSVKGRFTISRDNEKNTVYLQINSLKPEDTAVYYCNAKTSIGTWVGDDYWGQGTQVTVSS”, the “polyreactivity (PSR sort gate)” value is reported as “low polyreactivity”. For “QVQLVESGGALVQAGGSLRLSCAAYGRIFLVYAMGWSRQAPGKEREMVAAISWSTGSTYYADSVKGRFTISRDNAKNTVYLQMNSLKPEDTAVYYCAAEPELDEYEHDYWGQGTQVTVSS”, the “polyreactivity (PSR sort gate)” value was “low polyreactivity”. With “QVQLVESGGALVQAGGSLRLSCAYTGLIFGLYAMGWYTQAPGQERDFVAAITSVTSTYYADSVKGRFTISRDNAKNTFFLQMISLKPEDTAVYYCAADSPVDYLYALYLSVRDDYWGHGTQVTVSS” the “polyreactivity (PSR sort gate)” value was “low polyreactivity”. In the case of “QVQLVESGGALVQAGGSLRLTCAASGSTFWDNSMGWYRQAPGKEREFVADITAIGGTTYYADSVKGRFTISRDNAQNTVYLQMNSLKPEDTAVYYCAADWTTYGFSYFSIYYYWGQGTQVTVSS”, the “polyreactivity (PSR sort gate)” value is reported as “low polyreactivity”. In the case of “QVQLVESGGAVVHAGGSLRLSCAASGFTFRYYDKGWYRQAHGKEMELVAAISSGGSTDYADSVKGRFTISRDNAKNTVYLQMNCLKPEDNAVYYCAADWWVVYTYDYWGPGTQVTVSS”, the “polyreactivity (PSR sort gate)” value is reported as “low polyreactivity”. For “QVQLVESGGCIDQAGGSLRLSCAASGSNFRGYAKGWYRQAPGKERELVAAITWSGGSTYYADSVKGRFTISRDKAKNTVSLQMNSLKPEDTAVYYCAAEYWDSDTYDYCGQGTQVTVSS”, the “polyreactivity (PSR sort gate)” value was “low polyreactivity”. For “QVQLVESGGCIVQAGGSLRLSCAASGNIFYRNAMGWYRQAPGKERELVAAISSGGITYYADYVKGRFTISRDNAKNTVYLQMNSLKPDDTAVYYCAAYIRNCRATYEYWGPGTQVTVSS”, the “polyreactivity (PSR sort gate)” value was “high polyreactivity”. In the case of “QVQLVESGGCIVQAGGSLRLSCAASGRIFKLYAMGWYRQAPGKERELVAAITTSGGSTYYADSVKGRFTISRDNAKNTVSLEMNSLIPEDTAGYYCNARAVRYPFTGNYWGQGTQVTVSS”, the “polyreactivity (PSR sort gate)” value is reported as “high polyreactivity”. In the case of “QVQLVESGGCKVQAGGSLRISCAASGRIFGYYMGWYRQAPGKEREMVARITFRGGSTYYADSVKGRFTNSRDNAKNNVYLQMNSLKPEDTAVYYCNARGKGGSTNRSDYWGQGTQVTVSS”, the “polyreactivity (PSR sort gate)” value is reported as “high polyreactivity”. For “QVQLVESGGCLDQAGGSLRLSCAASGFTLHSYAMGWYRQAPGKERELVAAITTGGSTYYADSVKGRLTISRDNAKNTVYLQMNSLKPEDTAVYYCAAEDPGPYGGYVYWGQGTQVTVSS”, the “polyreactivity (PSR sort gate)” value was “low polyreactivity”. For “QVQLVESGGCLFQAGASLRLSCAASGRILAYYAMGWYRQAPGKERELVAAITSGGRTYYADSVKGRFTISRDNAKNTVYLQMNSLKPEDTAVYYCNRVTGYDSGDGYWGQGTQVTVSS”, the “polyreactivity (PSR sort gate)” value was “high polyreactivity”. With “QVQLVESGGCLVEAGGSLRLSCAASGRIFVHKAMGWYRQAPGKEREFVAAISLRGGSTYYADSVKGRFTISRDNAKNTVYLQMNFLKPEVTAVYYCAAVPAHFYGYDYWGQGTQVTVSS” the “polyreactivity (PSR sort gate)” value was “low polyreactivity”. With “QVQLVESGGCLVHAGGSHRLRCAASGSTFSRYAMGWYRHAPGKERELVAAISSSGGSTYYADSVKGRFTISRDNAKNTVYLQMNSLKPEDTAVYYCAARIWRTRRYDYWGQGTQVTVSS” the “polyreactivity (PSR sort gate)” value was “high polyreactivity”. With “QVQLVESGGCLVQAGGRLRLSCAASGRIFYWNDMGWYRQAPGKERELVAAIDFSGASTYYADSVKGRFTISRDNAKNTVYLEMNSLKPEDTAVYYCAAYQRRGKYQMDYWGQGTQVTVSS” the “polyreactivity (PSR sort gate)” value was “low polyreactivity”. In the case of “QVQLVESGGCLVQAGGRLRLSCAASGSTFAYYSMGWDRQAPGKERELVAAITDSGGSTYYADSVKGRFTISRDNAKNTVYLQMNSLIPEDTAVYYCAVYGPWAYYPMGYWGQGSQVTVSS”, the “polyreactivity (PSR sort gate)” value is reported as “low polyreactivity”. For “QVQLVESGGCLVQAGGRLRLSCAPSGFTFRKYAMGWYRQAPGKERQLVAAITANGGRTYNADSVKGRFTISRDNAKYTDYLKMNSLKPEDTSVYYCYARPSRGFRPRSAYGYWGQGTQVTVSS”, the “polyreactivity (PSR sort gate)” value was “high polyreactivity”. With “QVQLVESGGCLVQAGGSHRLSCAASGFIFYRYAMGWYRQAPGKERELVAAISGSGGRTYYADSVKGRFTISRDNAKNTVYLQMNSLKPEDTAVYYCAADKQAYVTDDYWGQGTQVTVSS” the “polyreactivity (PSR sort gate)” value was “high polyreactivity”. In the case of “QVQLVESGGCLVQAGGSIRLSCAASGSILGFNAMGWSRQAPGKERELVAAISTSGSSTYYADSVKGRFTISRDNATISVYLLMNSLIPEDTAVYYCAKRRGGSRPYYYWGQRTQVTVSS”, the “polyreactivity (PSR sort gate)” value is reported as “high polyreactivity”. With “QVQLVESGGCLVQAGGSLRFSCAASGLTLFRYAMGWYRQAPGKERELVAAIDYGGGTYYADSVKGRFRISRDNAKNTVYLQMNSLKPEDTAVYYCAVEPEYKYYEGDYWGQGTQVNVSS” the “polyreactivity (PSR sort gate)” value was “low polyreactivity”. For “QVQLVESGGCLVQAGGSLRLSCAASGFIFPPNAMGWYRQAPGKERELVASISSSGGSTYYADSVKGRFTISRDNAKNTVYLQMNSLKPEDTAVYYCAADWFYGWGKYDYWGQGTQVTVSS”, the “polyreactivity (PSR sort gate)” value was “low polyreactivity”. With “QVQLVESGGCLVQAGGSLRLSCAASGFIIRYYAMGWYRQAPGKERELDAAITRGGSTYYADSVKGRFRISRDNAKNTVYLQMNSLNPEDTAVYYCAARLYTQYYYWGQGTQVNVSS” the “polyreactivity (PSR sort gate)” value was “high polyreactivity”. With “QVQLVESGGCLVQAGGSLRLSCAASGFTFGPYAMGWYRQARGKERELVATLRSGDSTNYADSVKGRFTISRDNAKNTVYLQMNSVKPDDTAVYYCAVSYLSTMGRSRYEYWGQGTQVTVSS” the “polyreactivity (PSR sort gate)” value was “low polyreactivity”. With “QVQLVESGGCLVQAGGSLRLSCAASGFTFPGNAMGWYRQAPGKERELVAAMSASGGKTYYADSVKGRFTISRDNAKNTVYLQMNSLKPEDTAVYYCAAVVAFATGTYYYWGQGTQVTVSS” the “polyreactivity (PSR sort gate)” value was “high polyreactivity”.
